Common to all, as to assay: enzyme inhibition assay (chromogenic substrate, fit to Morrison's tight binding equation); MMP-2ACT (0.6 nM), MMP-9CAT (3 nM) or MMP-14CAT (1 nM) incubated with 0-25 nM N-TIMP2 variant for 1 h at 37 C in 50 mM HEPES, 10 mM CaCl2, 0.05% Brij-35, 1 mM DTNB, pH 7.5; then 100 uM chromogenic substrate, absorbance at 412 nm; three independent experiments
The target of assay [1] is activated MMP-2 (MMP-2ACT) (human) (UniProt P08253).
Assay [2] has as its target human MMP-14 catalytic domain (MMP-14CAT) (human) (UniProt P50281).
In assay [3] the target is human MMP-9 catalytic domain (MMP-9CAT) (human) (UniProt P14780).

Data on eight substances can be found in publication PMC9882641.

In the case of “N-TIMP2-A70DOPA (from UniProt P16035 27-153) (domain or fragment)”, the Ki in assay [1] came out at 0.785 nM; in assay [2] it was 10.6 nM; in assay [3] it was 0.452 nM.

Take “N-TIMP2-A70HqAla (from UniProt P16035 27-153) (domain or fragment)”: the Ki in assay [1] turned out to be 16.7 nM; in assay [2] it was 27.2 nM; in assay [3], 1.93 nM.

On to “N-TIMP2-L100DOPA (from UniProt P16035 27-153) (domain or fragment)”, for which the Ki in assay [1] came to 1 nM; in assay [2], 14.2 nM; in assay [3], 0.849 nM.

As to “N-TIMP2-S2DOPA (from UniProt P16035 27-153) (domain or fragment)”, the inhibition constant Ki in assay [1] amounted to 3.14 nM; in assay [2], 14.6 nM; in assay [3], 0.623 nM.

As to “N-TIMP2-S2HqAla (from UniProt P16035 27-153) (domain or fragment)”, the inhibitory constant (Ki) in assay [1] was 97.7 nM; in assay [2], 97.7 nM; in assay [3] it was 70.4 nM.

Regarding “N-TIMP2-S69DOPA (from UniProt P16035 27-153) (domain or fragment)”, the inhibition constant Ki worked out at 0.46 nM in assay [1], 21.4 nM in assay [2] and 0.468 nM in assay [3].

As for “N-TIMP2-S69HqAla (from UniProt P16035 27-153) (domain or fragment)”, the figures for the Ki in assay [1], in assay [2] and in assay [3] were 0.606 nM, 11.5 nM and 0.449 nM, respectively.

For “N-TIMP2-Y36HqAla (from UniProt P16035 27-153) (domain or fragment)”, the inhibition constant Ki turned out to be 0.413 nM in assay [1], 4.72 nM in assay [2] and 0.543 nM in assay [3].
